Reference: a protein production outcome set (Wang et al. 2014)

Assay: label from the status in PepcDB records

MNEHNITNTSLALSMLLVVVAMLISHKEKLALEKDILWSVCRAVIQLIIVGYVLKYIFGVNHAALTLLMVLFICFNAAWNAQKRSKYIDKAFLSSFIAITVGAGLTLTVLVLTGSIEFAPMQVIPIAGMVAGNAMVAVGLCYNQLGLRFHSEQQQIQEKLSLGATPKMASAGLIRDSIRASLIPTIDSAKTVGLVSLPGMMSGLIFAGIDPVKAIKYQIMVTFMLLSTASLSTIIACYLTYRKFYNSRHQLVVMPLKKS
protein production: failed

MTVLSPSLPHAAGIDAALVENPWLGLRRSGRYFQNAETEALFARALGYARAGVCVHLAGPAGLGKTTLALRIAQALGRPVAFMTGNEWLGSRDFIGGEIGQTVTSVVDRYIQSVRRTEQSARIDWKESILGQAMRCGQTFIYDEFTRASPEANAALLSVLEEGVLVSTDGASRHQYIEAHPDFRVLLTSNPHEYQGVKAAPDALIDRMVTLRLEEPSAPTLAGIVALRSGLDPATARRIVDLILSVQRSGEMQAPPSMRTAILVARLAAPLRLAGRLSDAALAEIAADVLRGRGLEADAAAFEAKLAAPTPGETARLEHHHHHH
protein production: failed

MCAPKRGRSQQFITTVIVCWRMASFSFRIEVRLSDAERRPTMRQQLFSTLTVLVALVGLSRAVVAQPMAIATLTPPELQELQRLVPRSAEDYYNLGLMHQGRGDLAAAIDAFSQAIKLNPSADYYFARGLAYYDQGDMQRAIADFTTALGDDPQFIAAYYNRGMAYLALQNYDAAIADFDAALARDPQFVAAYYSRGMAHFDRGNVELAQRDYERARALNPAMTAQYYDRAPRPLTGGP
protein production: failed

MLISIESKEHYRILCIDGGSTDQTIPMIERLQRELKHISLIQLQNASIATCINKGLMDIKMTDPHDSDAFMVINPTSIVLPGKLDRLTAAFKNNDNIDMVIGQRAYNYHGEWKLKSADEFIKDNRIVTLTEQPDLLSMMSFDGKLFSAKFAELQCDETLANTYNHAILVKAMQKATDIHLVSQMIVGDNDIDTHATSNDEDFNRYIIEIMKIRQRVMEMLLLPEQRLLYSDMVDRILFNNSLKYYMNEHPAVTHTTIQLVKDYIMSMQHSDYVSQNMFDIINTVEFIGENWDREIYELWRQTLIQVGINRPTYKKFLIQLKGRKFAHRTKSMLKRLEHHHHHH
protein production: failed

MKNTKFSIKKIKNISNDPKVVHTKGALLEKMGKMESAIELYKSAALDNYVKSQYTLGNIYESKKQFKEAEKWYSMAYKSGSEDAAFDLGNMYYKLDGYEYAIYWYEKIANLGYLQAQNNLGVCHFKMKDFVRCEKWLKTAADKNLGKACFNLGVLYTFLEKDDEAYEYYKKGSVLLDDDAKYNLAILNGKKKDNKSTVSLYKQLYKSGHMKGCFNLGMIMEINDNLEDAEKYYKKSADRDDVKSEYRLAYVYDRKEELGDAIYYYEKAIEKNHTLSKYRLANLYNRENEIEKAKTYYKMAAEDDITEAKNNLAGIYFEEKDYENAIKYYEDAIAVGCKSSLENLGDLYYQNQDIEKAISYYSRIPNNVSCQIKLGNIYEDLNNIEEAISWYKKASENGDTRSSYRLGCIYESLGNTKNARKYFEMASSKNHMNARIHLGRIYFREGKLEESKMMFDTPANENNVYAQHMVGLIYDMFYKDYVNSKFWYEKARAQGCVESIYNLGQIYLKLNDDAEAEKYYKEGIKYGSKKCEYMLAGLYYKKSLDMYISLANEEYDNCEEIVEGFPNLNIDFDEVLIPPFKLQEEVIDEEEYVPIYILNIKESLDSMLEGLETEMIIDEEHDS
protein production: failed

MEQQRSFQTETGGHLYLVPTPIGNLDDMTFRAVKTLTAVDLIAAEDTRNTQKLLNHFEITTKQISFHEHNTQERIPQLIAKLKQGMQIAQVSDAGMPSISDPGHELVNACIDAHIPVVPLPGANAGLTALIASGLAPQPFYFYGFLDRKPKDRKAEIAGLAQRPETLIFYEAPHRLKKTLQNLAAGFGDERPAVLCRELTKRYEEFLRGSLAELANWAATDTVRGEFVVLVGGNPAPTTAATTAVDLSEPIDVQVDRLIAAGEKPNDAIKEVAKLRGAKKQEIYRQYHHLDEE
protein production: not failed

MDKQKEQLSIEVARLYYQSDLGQQEIATRLGVSRPTVSRLLQNAKLKGYVKIEVQDPFSNLTELANALKEKYQLKNVTVAFSQTNDYSEISKQISQSAAEYLEEIIHDDDILGVSWGTTMYKIAQKLSPQKAEIKVVQLKGGVSHSDVNTYAAETLALFGAAYDTAPVSLPLPVVLDNPLAKQMVEADRHIKNIIELGKKANIAIFTVGTVREEALLFRLGYFSDEEKIRLKEKAVGDICSRFFTINGEIADEKMNERTIGIDLQDLKQKETAILVAGGERKIKAIHGALRGGYANHFITDQYTAKQLLEQNFSN
protein production: failed

MVKKMKSKTISTIHIDTFSIPFPFVAMSNKVCRGYTLIRAFGITALAILILVGIAGAAPFAYVTNIGDYDQRGPNVAVIDTATNNVTARVPLGGGWPVGVAVNPAGTKIYVVDSPSDSTVYVIDTATNKVSAKVNLGSSYPARITFNPAGTRVYVTKQHDYTDIFVINPATNTLMAPIIVGPSTYGIAFTPDGKKIYAANCNNNTIYVIDAATNKVTANISVGDSPCGIAVTPDGKKVYVLNYDSNTVSVINTATDNVIATVPVGNSPNLVAVTSNGNKVYVANNNTVSVIDTATNNVIATIPVGTSSRKIVINPDGNRVYLVNFGSNSVSVIDTATDNVIANVPVGEQPMGIAVTPDGKRVYVTNSRSSNVSVIDTATDTVAATVNAGILPTGVVIVPLTDSDMTSQSTGAISSSTEDRGIEVTNISSSEEINAVELNNYSDENNPESDNDNGSNANDSSKNNSTPGFGLLESLAGLYVGWKLGKR
protein production: failed

NDTELPTYRVVSRLSLDDLIETIDEDLDREIEFSEEILDQVDTVGGLIAFEKGRIPLPGTTVTTSGLQLQAEGGRDRRGRIQVRSVLVSVLPVESLSEL
protein production: failed

EDVSWIKPGQVSWEWWNGATPYGQDVTFKAGCNLETYKYFIDFASKFGIPYIIMDEGWAKSTRDPYTPNPDVDLHELIRYGKEKNVGIVLWLTWLTVEKNFDLFKTFNEWGIKGVKIDFMDRSDQWMVNYYERVAQEAARHHLFVDFHGSFKPAGLEYKYPNVLSYEGVRGMEQMGGCKPENSIYLPFMRNAVGPMDYTPGAMISMQPNIYRSERPNSASIGTRAYQMALFVIFESGLQMLADNPTLYYRNEDCTRFITQVPVTWDET
protein production: failed

MAESTDQTEQLRELAEIGLEGYAPYLMNRIMGRYNANLRKEMTALGLSTAKMRALAILSAKDGLPIGTLGIFAVVEQSTLSRALDGLQADGLVRREVDSDDQRSSRVYLTPAGRAVYDRLWPHMRASHDRMFQGITPQERQAFLATLNKMLANIRVHEI
protein production: not failed

MTDRAPADKYVVWVVLALSSVGVVAVYSAVTYLAEVRAGTEPVHFLLRHLARVGIALGAMGVVSLIDYRTLARYSRLALVGTLLLLVAVKVVGLFSGGADRWLQIGGVGFQPSEFARVALVLYVAVLLVQKQDYVKSFSRTFLPVLFWVGVTVGLIALDDLSTALVLLLGVLLMSFVGRVSVLQIGGLAVLGGVMAFGVLSTSPDRAARLEAYLGMDLFPNTDTEQVMDARGEQYQSRQARMAFAAGGFTGVGPGKSVQRDFLPEPYNDFIFAIIAEEYGIFGALALLTGFFVLLFRGYLRIARDAPDPLGLILAVGMTTLVVTYGFVHAGVASGLLPVTGLPMPFVSYGGTSLLANGIMIGVLLNISRHAGQRSAERV
protein production: failed

MDYDQQPIMYDEVELLIQAVDQQPHPLLRLRDKAIIQLGLQGGFRRSELANLKVHYLSFMRDKLKVRLPFSKSNQQGLREWKSLPDSEPFAAYHAVKSWLNESQITDGHLFRSISRDGKTLRPYHVNDNSKPKSTFSRNSGFLNGDDIYRIIKQYCLKAGLPAQYYGAHSLRSGCVTQLHENNKDILYIMARTGHTDPRSLRHYLKPKEDLEHHHHHH
protein production: failed

MENGLAQGIGGIAFLVGVMAFWQKDDLRFRYQMMAFCFIMGVHFALLGATVAAIGVVINGIRSFASIKTQSRKVMWFFIALMWLMTLPNMSHFFELLTVIGSSVATWALFSKQGIALRSLILFNSFCWVSHNLWLGSIGGSLVESTFIVTNLLTIYRLFHAQERISQTQNNQFLASNTESSTD
protein production: failed

MIRTAKRTELIEVAQGRRPADIVIKGGTVVNVYSGEFLRQNVAIYHDAIAYVGEKEVAVDEHTIVIDAEGMYVSPGFIEPHAHPWVLYNPVSMTAKVLPLGTTTTVNDNLFFYLHFGVDGFRQLIEDLRVLPGHFFWLVRLVSQADFPGERDWFDPRHIQELLAMDEVVGTAEVTRWPLLYQGDPFLLETIEAAKRAGKVVDGHTAGCSYEKLNSIAASGVSACHEAITAEEALHRLRLGMWTTLRHSSLRPDFPEIIRLITEKKVSTQRITMTTDGPHPGFIEREGFVDGLVRKAVELGVPPMTALQMATINAATYLQLDDEIGGIAPGKLADILLLPDLVTFQPSLVIAKGRIVARDGKLLAPLPEIDWKRYVSKKPFLFAKERLDDERLYRYPHSESDQPVPVMYFKSNVITERKDVALPSVDGYADLSHHPGLLYAALIDRNGQWVAKAILERFALDIDGMASTYNTTTELLVIGKQPEAMAAAAKRVLEMGGGIVVIDGGRPVVEIPLPFTGMMTTDDSFDTAVRFHDELLSALQERGFPFHDILYTLLFLTCDFLPGLRLIPYGLYDVKRNEILLPAEKIGEKVVK
protein production: failed

MSRKRSTKPKPAAKIALKKENDQFLEALKLYEGKQYKKSLKLLDAILKKDGSHVDSLALKGLDLYSVGEKDDAASYVANAIRKIEGASASPICCHVLGIYMRNTKEYKESIKWFTAALNNGSTNKQIYRDLATLQSQIGDFKNALVSRKKYWEAFLGYRANWTSLAVAQDVNGERQQAINTLSQFEKLAEGKISDSEKYEHSECLMYKNDIMYKAASDNQDKLQNVLKHLNDIEPCVFDKFGLLERKATIYMKLGQLKDASIVYRTLIKRNPDNFKYYKLLEVSLGIQGDNKLKKALYGKLEQFYPRCEPPKFIPLTFLQDKEELSKKLREYVLPQLERGVPATFSNVKPLYQRRKSKVSPLLEKIVLDYLSGLDPTQDPIPFIWTNYYLSQHFLFLKDFPKAQEYIDAALDHTPTLVEFYILKARILKHLGLMDTAAGILEEGRQLDLQDRFINCKTVKYFLRANNIDKAVEVASLFTKNDDSVNGIKDLHLVEASWFIVEQAEAYYRLYLDRKKKLDDLASLKKEVESDKSEQIANDIKENQWLVRKYKGLALKRFNAIPKFYKQFEDDQLDFHSYCMRKGTPRAYLEMLEWGKALYTKPMYVRAMKEASKLYFQMHDDRLKRKSDSLDENSDEIQNNGQNSSSQKKKAKKEAAAMNKRKETEAKSVAAYPSDQDNDVFGEKLIETSTPMEDFATEFYNNYSMQVREDERDYILDFEFNYRIGKLALCFASLNKFAKRFGTTSGLFGSMAIVLLHATRNDTPFDPILKKVVTKSLEKEYSENFPLNEISNNSFDWLNFYQEKFGKNDINGLLFLYRYRDDVPIGSSNLKEMIISSLSPLEPHSQNEILQYYL
protein production: failed

MPGTVGVLSGARSLLLSMVASVTAAGGNAAIVGQPDIGLLAAVEMGADLSRLAMIPDPGTDPVEVAAVLIDGMDLVVLGLGGRRVTRARARAVVARARQKGCTLLVTDGDWQGVSTRLAARVCGYEITPALRGVPTPGLGRISGVRLQINGRGRLEHHHHHH
protein production: failed

MPKTSHPFQLSLLALAVSAVLVSGCNSSDNDDDLATEAQVTGLTLEFAGRYSTGQFDESAAEITAFDPASRRAFVVNALSGAVDVLDMSDPVNPAKIDTLTVADIAADAVVNSVAVANGLVAVAVESNPKTDPGYVAVFGAADLQLRDSIQVGAQPDMVTFTPDGQYVLAANEGEPSDDYQVDPEGSISVVDVSNPASLTVRIADFLAFNSQESDLKASGVRIYGPGATVAQDLEPEYITVSADSRAAWVSLQENNALAKLDIDTATVTGILPLGFKDYGVEGQGIDASDDDGVINIQRWPGVVGIYHPDAIDSYQANGETFIVTANEGDARAWGEDDADYWNGDSSRGFVEELRVKHLVHPDGFARRIGDDMPSQLTALAEGALLNPSVFDYCGATAGAANACRDDDQLGRLNISWVQGYRVDENGAPVMFNASGAEDPDGTLLMYDQLYSYGTRSLAIWNEDGELVWDSGDAIEQFLASEDCRLGTARSIPCSDHFNSAHDEGMAFDSRSDAKGPEPEAVTVATFGNKTFAFLGLERMGGILVYDVTDPASPVQVDYLNTRDDWTTVDTASVLETAGDLGVESITVVAADDSPTGEPLLITGNEVSGTTAIYRVKLELTD
protein production: failed
